From article PMC11403609, “Kinetics of Secoisolariciresinol Glucosyltransferase LuUGT74S1 and Its Mutants” (Journal of Agricultural and Food Chemistry, 2024) come the findings set out here.

B1: LuUGT74S1 (Linum usitatissimum; H194S) (protein)
chain: MAGDEREKAHCLVVPAAAQGHFTPLLQFSKRLIPKRIRVTLALTRFIHSTMTVTAQSGIHIDTISDGFDHSGLILQDPEHYSQTFRRVGSETLTDLIRKQSESRHPVHCIIYDASMPWFLDVAKRFGIVGAAFLTQSCAVNAIYYHLREGTIKRPVVSDPAAGTLVIDGLPPLEVSDLPSFIWDDLHTEFLAASLRQFSNDGADWVFCNTVYQLELEAVDWLTKQWLINFRTIGPTIPSFYLDKQIPDDKDYDISIFNPQNQTCMNWLQSKPDGSVVYVSFGSLARLSPQQTEELYFGLKNSNHYFLWVVRESEVAKLPKEEYLSGEKGLVVSWCSQLQVLASGKVGCFVTHCGWNSTLEALSLGVPMVAMPECGDQLTNAKFIKDVWKTGVRAEADDGKGIMWGMIKREVIERCIREVMEGEETRRNADKWGKIIKEAVVEGGSSDKNTEDFATSLINFAETFQFSC
notes: N-terminal GST fusion (pGEX-4T-1, EcoRI/NotI), tag kept (eluted with glutathione); codon-optimised synthetic gene; E. coli BL21(DE3) pLysS
B2: LuUGT74S1 (Linum usitatissimum; S115A) (protein)
chain: MAGDEREKAHCLVVPAAAQGHFTPLLQFSKRLIPKRIRVTLALTRFIHSTMTVTAQSGIHIDTISDGFDHSGLILQDPEHYSQTFRRVGSETLTDLIRKQSESRHPVHCIIYDAAMPWFLDVAKRFGIVGAAFLTQSCAVNAIYYHLREGTIKRPVVSDPAAGTLVIDGLPPLEVSDLPSFIWDDLHTEFLAAHLRQFSNDGADWVFCNTVYQLELEAVDWLTKQWLINFRTIGPTIPSFYLDKQIPDDKDYDISIFNPQNQTCMNWLQSKPDGSVVYVSFGSLARLSPQQTEELYFGLKNSNHYFLWVVRESEVAKLPKEEYLSGEKGLVVSWCSQLQVLASGKVGCFVTHCGWNSTLEALSLGVPMVAMPECGDQLTNAKFIKDVWKTGVRAEADDGKGIMWGMIKREVIERCIREVMEGEETRRNADKWGKIIKEAVVEGGSSDKNTEDFATSLINFAETFQFSC
notes: as for B1
B3: LuUGT74S1 (Linum usitatissimum; A17S) (protein)
chain: MAGDEREKAHCLVVPASAQGHFTPLLQFSKRLIPKRIRVTLALTRFIHSTMTVTAQSGIHIDTISDGFDHSGLILQDPEHYSQTFRRVGSETLTDLIRKQSESRHPVHCIIYDASMPWFLDVAKRFGIVGAAFLTQSCAVNAIYYHLREGTIKRPVVSDPAAGTLVIDGLPPLEVSDLPSFIWDDLHTEFLAAHLRQFSNDGADWVFCNTVYQLELEAVDWLTKQWLINFRTIGPTIPSFYLDKQIPDDKDYDISIFNPQNQTCMNWLQSKPDGSVVYVSFGSLARLSPQQTEELYFGLKNSNHYFLWVVRESEVAKLPKEEYLSGEKGLVVSWCSQLQVLASGKVGCFVTHCGWNSTLEALSLGVPMVAMPECGDQLTNAKFIKDVWKTGVRAEADDGKGIMWGMIKREVIERCIREVMEGEETRRNADKWGKIIKEAVVEGGSSDKNTEDFATSLINFAETFQFSC
notes: as for B1
B4: LuUGT74S1 (Linum usitatissimum; Y144F) (protein)
chain: MAGDEREKAHCLVVPAAAQGHFTPLLQFSKRLIPKRIRVTLALTRFIHSTMTVTAQSGIHIDTISDGFDHSGLILQDPEHYSQTFRRVGSETLTDLIRKQSESRHPVHCIIYDASMPWFLDVAKRFGIVGAAFLTQSCAVNAIFYHLREGTIKRPVVSDPAAGTLVIDGLPPLEVSDLPSFIWDDLHTEFLAAHLRQFSNDGADWVFCNTVYQLELEAVDWLTKQWLINFRTIGPTIPSFYLDKQIPDDKDYDISIFNPQNQTCMNWLQSKPDGSVVYVSFGSLARLSPQQTEELYFGLKNSNHYFLWVVRESEVAKLPKEEYLSGEKGLVVSWCSQLQVLASGKVGCFVTHCGWNSTLEALSLGVPMVAMPECGDQLTNAKFIKDVWKTGVRAEADDGKGIMWGMIKREVIERCIREVMEGEETRRNADKWGKIIKEAVVEGGSSDKNTEDFATSLINFAETFQFSC
notes: as for B1
B5: LuUGT74S1 (Linum usitatissimum; Q136S) (protein)
chain: MAGDEREKAHCLVVPAAAQGHFTPLLQFSKRLIPKRIRVTLALTRFIHSTMTVTAQSGIHIDTISDGFDHSGLILQDPEHYSQTFRRVGSETLTDLIRKQSESRHPVHCIIYDASMPWFLDVAKRFGIVGAAFLTSSCAVNAIYYHLREGTIKRPVVSDPAAGTLVIDGLPPLEVSDLPSFIWDDLHTEFLAAHLRQFSNDGADWVFCNTVYQLELEAVDWLTKQWLINFRTIGPTIPSFYLDKQIPDDKDYDISIFNPQNQTCMNWLQSKPDGSVVYVSFGSLARLSPQQTEELYFGLKNSNHYFLWVVRESEVAKLPKEEYLSGEKGLVVSWCSQLQVLASGKVGCFVTHCGWNSTLEALSLGVPMVAMPECGDQLTNAKFIKDVWKTGVRAEADDGKGIMWGMIKREVIERCIREVMEGEETRRNADKWGKIIKEAVVEGGSSDKNTEDFATSLINFAETFQFSC
notes: as for B1
B6: LuUGT74S1 (Linum usitatissimum; Q136E) (protein)
chain: MAGDEREKAHCLVVPAAAQGHFTPLLQFSKRLIPKRIRVTLALTRFIHSTMTVTAQSGIHIDTISDGFDHSGLILQDPEHYSQTFRRVGSETLTDLIRKQSESRHPVHCIIYDASMPWFLDVAKRFGIVGAAFLTESCAVNAIYYHLREGTIKRPVVSDPAAGTLVIDGLPPLEVSDLPSFIWDDLHTEFLAAHLRQFSNDGADWVFCNTVYQLELEAVDWLTKQWLINFRTIGPTIPSFYLDKQIPDDKDYDISIFNPQNQTCMNWLQSKPDGSVVYVSFGSLARLSPQQTEELYFGLKNSNHYFLWVVRESEVAKLPKEEYLSGEKGLVVSWCSQLQVLASGKVGCFVTHCGWNSTLEALSLGVPMVAMPECGDQLTNAKFIKDVWKTGVRAEADDGKGIMWGMIKREVIERCIREVMEGEETRRNADKWGKIIKEAVVEGGSSDKNTEDFATSLINFAETFQFSC
notes: as for B1
B7: LuUGT74S1 (Linum usitatissimum) (protein)
chain: MAGDEREKAHCLVVPAAAQGHFTPLLQFSKRLIPKRIRVTLALTRFIHSTMTVTAQSGIHIDTISDGFDHSGLILQDPEHYSQTFRRVGSETLTDLIRKQSESRHPVHCIIYDASMPWFLDVAKRFGIVGAAFLTQSCAVNAIYYHLREGTIKRPVVSDPAAGTLVIDGLPPLEVSDLPSFIWDDLHTEFLAAHLRQFSNDGADWVFCNTVYQLELEAVDWLTKQWLINFRTIGPTIPSFYLDKQIPDDKDYDISIFNPQNQTCMNWLQSKPDGSVVYVSFGSLARLSPQQTEELYFGLKNSNHYFLWVVRESEVAKLPKEEYLSGEKGLVVSWCSQLQVLASGKVGCFVTHCGWNSTLEALSLGVPMVAMPECGDQLTNAKFIKDVWKTGVRAEADDGKGIMWGMIKREVIERCIREVMEGEETRRNADKWGKIIKEAVVEGGSSDKNTEDFATSLINFAETFQFSC
notes: as for B1
B8: LuUGT74S1 (Linum usitatissimum; S115F) (protein)
chain: MAGDEREKAHCLVVPAAAQGHFTPLLQFSKRLIPKRIRVTLALTRFIHSTMTVTAQSGIHIDTISDGFDHSGLILQDPEHYSQTFRRVGSETLTDLIRKQSESRHPVHCIIYDAFMPWFLDVAKRFGIVGAAFLTQSCAVNAIYYHLREGTIKRPVVSDPAAGTLVIDGLPPLEVSDLPSFIWDDLHTEFLAAHLRQFSNDGADWVFCNTVYQLELEAVDWLTKQWLINFRTIGPTIPSFYLDKQIPDDKDYDISIFNPQNQTCMNWLQSKPDGSVVYVSFGSLARLSPQQTEELYFGLKNSNHYFLWVVRESEVAKLPKEEYLSGEKGLVVSWCSQLQVLASGKVGCFVTHCGWNSTLEALSLGVPMVAMPECGDQLTNAKFIKDVWKTGVRAEADDGKGIMWGMIKREVIERCIREVMEGEETRRNADKWGKIIKEAVVEGGSSDKNTEDFATSLINFAETFQFSC
notes: as for B1
B9: LuUGT74S1 (Linum usitatissimum; Q136F) (protein)
chain: MAGDEREKAHCLVVPAAAQGHFTPLLQFSKRLIPKRIRVTLALTRFIHSTMTVTAQSGIHIDTISDGFDHSGLILQDPEHYSQTFRRVGSETLTDLIRKQSESRHPVHCIIYDASMPWFLDVAKRFGIVGAAFLTFSCAVNAIYYHLREGTIKRPVVSDPAAGTLVIDGLPPLEVSDLPSFIWDDLHTEFLAAHLRQFSNDGADWVFCNTVYQLELEAVDWLTKQWLINFRTIGPTIPSFYLDKQIPDDKDYDISIFNPQNQTCMNWLQSKPDGSVVYVSFGSLARLSPQQTEELYFGLKNSNHYFLWVVRESEVAKLPKEEYLSGEKGLVVSWCSQLQVLASGKVGCFVTHCGWNSTLEALSLGVPMVAMPECGDQLTNAKFIKDVWKTGVRAEADDGKGIMWGMIKREVIERCIREVMEGEETRRNADKWGKIIKEAVVEGGSSDKNTEDFATSLINFAETFQFSC
notes: as for B1

Substrate in the data set: COc1cc(C[C@@H](CO)[C@H](CO)Cc2ccc(O)c(OC)c2)ccc1O
The data set is described as follows: UDP-Glo glycosyltransferase assay (UDP release), Michaelis-Menten fit. In kind it is biochemical, Linum usitatissimum. To be noted: apparent, UDP-glucose 1.64 mM constant (general assay text says 100 μM), 50 mM phosphate pH 8, 30 °C, 30 min, total of mono- and diglucosylation. An excerpt:
UDP-Glo glycosyltransferase assay (UDP release), Michaelis-Menten fit on LuUGT74S1
Regarding B1, the Km was 122 ± 12 µM, the Vmax stood at 0.384 µmol/min/mg, the turnover number (kcat) amounted to 0.34 ± 0.06 s⁻¹ and the kcat/Km was determined as 3000 M⁻¹ s⁻¹.

Take B2: the Km was 70 ± 2 µM, the Vmax was 0.894 µmol/min/mg, the kcat stood at 0.76 ± 0.08 s⁻¹ and the catalytic efficiency (kcat/Km) came out at 11000 M⁻¹ s⁻¹.

As to B3, the Km came out at 68 ± 1 µM, the Vmax turned out to be 0.75 µmol/min/mg, the kcat was 0.56 ± 0.45 s⁻¹ and the kcat/Km is 8000 M⁻¹ s⁻¹.

As for B4, the Km was found to be 72 ± 1 µM, the maximum rate (Vmax) was 0.9 µmol/min/mg, the catalytic constant (kcat) came out at 0.75 ± 0.02 s⁻¹ and the kcat/Km was 10000 M⁻¹ s⁻¹.

Consider B5, for which the Michaelis-Menten constant (Km) was 75 ± 1 µM, the Vmax came to 1.02 µmol/min/mg, the kcat was 0.92 ± 0.71 s⁻¹ and the specificity constant (kcat/Km) is 12000 M⁻¹ s⁻¹.

Turning to B6, the Km was determined as 69 ± 2 µM, the maximum rate (Vmax) was found to be 0.858 µmol/min/mg, the catalytic constant (kcat) was 0.75 ± 0.02 s⁻¹ and the catalytic efficiency (kcat/Km) stood at 11000 M⁻¹ s⁻¹.

For the protein B7, the Michaelis-Menten constant (Km) came to 74 ± 1 µM, the maximal velocity (Vmax) is 0.948 µmol/min/mg, the kcat is 0.8 ± 0.01 s⁻¹ and the kcat/Km is 11000 M⁻¹ s⁻¹.

Consider B8, for which the Km worked out at 75 ± 1 µM, the Vmax stood at 0.834 µmol/min/mg, the catalytic constant (kcat) is 0.77 ± 0.02 s⁻¹ and the specificity constant (kcat/Km) turned out to be 10000 M⁻¹ s⁻¹.

Consider B9, for which the Km worked out at 165 ± 9 µM, the Vmax turned out to be 0.324 µmol/min/mg, the kcat was determined as 0.29 ± 0.04 s⁻¹ and the kcat/Km came to 2000 M⁻¹ s⁻¹.

As a reminder, the Km is the substrate concentration at which the rate is half of its maximum. By Vmax is commonly meant the top rate of the reaction or transport when substrate is in excess. For orientation: kcat means the number of substrate molecules converted per active site and unit of time at saturation. As usually defined, the kcat/Km is the turnover number divided by the Michaelis constant.
